PMC3604133

Molecular target: Aβ40-S26C (synthetic human Aβ1-40 in which Ser26 was changed to cysteine) (human)
Experiment: SEC

stoichiometry N: 2
Substance: Aβ40-S26C (synthetic human Aβ1-40 in which Ser26 was changed to cysteine) (peptide)
